Numbering of substitutions follows the chain as printed. Names may count otherwise.
Target: MAGEB2 peptide … / HLA-A*02:01 / b2m (human)
Test: FACS

B1: MA 03-E7_AS CC (L6M) (antibody, V domains shown)
VH: EVQLLESGGGVVQPGRSLRLSCAASGFTFSSHAMSWVRQAPGKCLEWVSAISGSGGGTYYAASGKGRFTISRDNSKNTLYLQMNSLRAEDTAAYYCVTGKGVHLGFDYWGQGTLVTVSS
VL: SYVLTQPPSVSVAPGQTARITCGGNNIGSKSVHWYQQKPGQAPVMVVYDDNDRPSGIPERFSGSNSGNTATLTISRVEAGDEADYYCQVWDYNMNVWVFGCGTKLTVL
B1 was tested, and the Kd was 0.5 nM.

B2: MA 03-H12_AS CC (K5A) (antibody, V domains shown)
VH: B1 VH with V11L, R16G, Y60N, G64V
VL: B1 VL with S66F, N93V, M94T, N95P, V96R
B2 was tested, and the Kd was 1.1 nM.

B3: MA 03-C7_AS CC (G2H) (antibody, V domains shown)
VH: B1 VH with V11L, R16G, G64V, A93V, V97A
VL: B1 VL with N93E, M94R, N95P, V96A, W97M
B3 showed a Kd of 1.5 nM.

B4: MA 03-G11_AS CC (O4R) (antibody, V domains shown)
VH: B1 VH with V11L, Q13K, R16G, G64V, A93V, V97A, G105N
VL: B1 VL with M45L, S66F, T73I, N93L, M94L, N95P, V96G, W97Q
Binder B4 has a Kd of 1.3 nM.

B5: MA 03-E11 AS CC (G2B) (antibody, V domains shown)
VH: B1 VH with V11L, R16G, Y60N, G64V
VL: B1 VL with N93Y, M94S, V96R, W97A
With B5 the Kd was 4.2 nM.

B6: MA 03-D12_AS CC (L6A) (antibody, V domains shown)
VH: B1 VH with V11L, R16G, G64V, G66A, A93V, V97A
VL: B1 VL with N93L, M94R, N95Q, V96Q, W97Q
In the case of B6, the Kd is reported as 0.7 nM.

B7: MA 10-D3 CC (O6B) (antibody, V domains shown)
VH: EVQLVESGGGLVQPGGSLRLSCAASGFTFSNAWMSWVRQAPGKCLEWVGRITSSRYGGTTDYAAPVKGRFTISRDDSKNTLFLQMNSLKTEDTAVYYCTTPSYSGSYYNYFSVMDVWGQGTTVTVSS
VL: DIQMTQSPSSLSASVGDRVTITCRTSQSISSYLNWYQQKPGRAPKLLIFAASSLQGGVPSRFSGSGSGTDFTLTISSLQPEDFATYYCQQTYSMPFTFGCGTKVDIK
B7 gave a Kd of 1.1 nM.

B8: MA 10-H3 CC (M9L) (antibody, V domains shown)
VH: B7 VH with T52R, S54R, R55P, F82Y
VL: B7 VL with M94S, V104L, D105E
In the case of B8, the Kd is reported as 0.7 nM.

B9: MA 10-D6 CC (V6Z) (antibody, V domains shown)
VH: B7 VH with Q13K, T52L, S53N, S54N, R55A, F82Y
VL: B7 VL
B9 gave a Kd of 0.7 nM.

B10: MA 10-G2 CC (T1S) (antibody, V domains shown)
VH: B7 VH with T52L, S54M, R55H, F82Y
VL: B7 VL with Y36F, R42K, G56S
Binder B10 has a Kd of 1 nM.

B11: MA 86-A4 CC (K2W) (antibody, V domains shown)
VH: QVQLVESGGGVVQPGRSLRLSCAASGFTFSTYGMHWVRQAPGKCLEWVAVISYDASNKYYAESVKGRFTISRDNSKNTLYLQMNSLRAEDTAVYYCARGQLLTGYWGQGTLVTVSS
VL: DIQMTQSPSSLSASVGDRVTITCRASQGISNYLAWYQQKPGKVPKLLIYAASTLQSGVPSRFSGSGSGTDFTLTISSLQPEDFATYYCQKYNSAPFTFGCGTKVEIK
Binder B11 has a Kd of 35.5 nM.

B12: MA 86-A4-N-F5 CC (M4H) (antibody, V domains shown)
VH: B11 VH with S56E, N57T, K58V, Y59K
VL: B11 VL with F83V
Work on B12 yielded a Kd of 51.8 nM.

B13: MA 09-H7 CC (T3S) (antibody, V domains shown)
VH: QITLKESGPALVKPTQTLTLTCTFSGFSFTTHKMGVDWIRQPPGKCLEWLALIYWNDDKRYSPSLQSRLTITKDTSKNQVVLTMTNMDPVDTATYYCAYRRYNWNYENWFDPWGQGTLVTVSS
VL: DIQMTQSPSSLSASVGDRVTITCQASQDISNYLNWYQQKPGKAPKLLIYAASSLQSGVPSRFSGSGSGTDFTLTISSLQPEDFATYYCQQSYFPVVEFGCGTKVEIK
B13 was tested, and the Kd was 0.8 nM.
